As usually defined, the pKd is −log10 of the Kd, conventionally taken in molar units.

Some targets named below: DLG1_2, Q12959; SNX27, Q96L92; Inadl_3, Q8NI35; Inadl_2, Q8NI35; AHNAK1, Q09666; GRID2IP_2, A4D2P6; MAGI1_1, Q96QZ7; Inadl_8, Q8NI35; MAGI2_4, Q86UL8.
Common to all, as to experiment: holdup assay
Common to all, as to design: key: below the threshold = too weak to quantify, mostly under pKd 3.1 to 4
Common to all, as to details: plain residues with an end cap or a label only (N-terminal biotin on a linker: ttds)

For a further assay, the target named is T1, APBA1_2, Q02410.
T1 sequence (Q02410 742-832, limits assumed, looked up): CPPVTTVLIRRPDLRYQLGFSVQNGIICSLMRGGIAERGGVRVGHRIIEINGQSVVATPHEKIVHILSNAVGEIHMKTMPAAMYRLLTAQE

The next assay has as its target T2, DLG3_3, Q92796.
T2 sequence (Q92796 374-475, limits assumed, looked up): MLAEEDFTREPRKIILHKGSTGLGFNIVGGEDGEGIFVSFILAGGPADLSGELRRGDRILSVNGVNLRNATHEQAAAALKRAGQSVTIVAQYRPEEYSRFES

In a further assay the target is T3, APBA2_1, Q99767.
T3 sequence (Q99767 563-664, limits assumed, looked up): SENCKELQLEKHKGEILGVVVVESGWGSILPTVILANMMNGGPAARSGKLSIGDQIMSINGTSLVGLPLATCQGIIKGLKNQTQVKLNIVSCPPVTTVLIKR

Another assay concerns the target T4, HTRA3, P83110.
T4 sequence (P83110 354-453, limits assumed, looked up): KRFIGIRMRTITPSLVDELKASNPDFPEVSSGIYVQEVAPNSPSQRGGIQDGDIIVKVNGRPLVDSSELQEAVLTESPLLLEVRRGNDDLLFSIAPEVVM

The target of a further assay is T5, PDZD2_2, O15018.
T5 sequence (O15018 329-429, limits assumed, looked up): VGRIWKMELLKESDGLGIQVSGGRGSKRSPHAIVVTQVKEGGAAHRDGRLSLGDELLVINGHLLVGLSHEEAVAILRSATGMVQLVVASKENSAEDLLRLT

The target in the next assay is T6, LIN7B, Q9HAP6.
T6 sequence (Q9HAP6 88-185, limits assumed, looked up): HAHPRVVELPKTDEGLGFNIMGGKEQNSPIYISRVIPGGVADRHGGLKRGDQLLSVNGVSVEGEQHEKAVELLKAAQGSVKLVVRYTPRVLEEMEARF

For the next assay, the target named is T7, TJP3_3, O95049.
T7 sequence (O95049 375-456, limits assumed, looked up): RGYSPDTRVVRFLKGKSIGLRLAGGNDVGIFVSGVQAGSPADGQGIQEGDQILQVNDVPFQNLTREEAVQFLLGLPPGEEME

The target of another assay is T8, SIPA1L2, Q9P2F8.
T8 sequence (Q9P2F8 945-1036, limits assumed, looked up): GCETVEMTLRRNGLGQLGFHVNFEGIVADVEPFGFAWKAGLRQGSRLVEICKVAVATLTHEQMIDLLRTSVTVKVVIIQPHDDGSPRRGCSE

Another assay addresses T9, RADIL, Q96JH8.
T9 sequence (Q96JH8 971-1071, limits assumed, looked up): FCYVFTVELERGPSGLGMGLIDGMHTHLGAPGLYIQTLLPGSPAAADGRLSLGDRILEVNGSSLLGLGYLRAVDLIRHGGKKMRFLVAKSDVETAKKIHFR

A further assay deals with T10, GRIP1_2, Q9Y3R0.
T10 sequence (Q9Y3R0 145-248, limits assumed, looked up): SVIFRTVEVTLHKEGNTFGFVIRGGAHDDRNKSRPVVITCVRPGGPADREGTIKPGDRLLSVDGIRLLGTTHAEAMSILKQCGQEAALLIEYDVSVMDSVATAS

In the next assay the target is T11, DFNB31_2, Q9P202.
T11 sequence (Q9P202 274-371, limits assumed, looked up): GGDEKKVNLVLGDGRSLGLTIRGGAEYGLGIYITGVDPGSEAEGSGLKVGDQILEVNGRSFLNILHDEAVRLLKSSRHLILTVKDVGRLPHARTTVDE

A further assay has as its target T12, PDZD7_3, Q9H5P4.
T12 sequence (Q9H5P4 857-944, limits assumed, looked up): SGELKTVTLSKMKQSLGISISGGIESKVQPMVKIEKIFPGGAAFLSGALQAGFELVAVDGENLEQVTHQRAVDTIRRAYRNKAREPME

The next assay addresses T13, SYNJ2BP, P57105.
T13 sequence (P57105 8-110, limits assumed, looked up): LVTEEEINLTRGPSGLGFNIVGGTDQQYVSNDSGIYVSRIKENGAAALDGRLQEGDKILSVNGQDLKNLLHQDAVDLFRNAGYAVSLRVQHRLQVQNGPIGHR

The target in the next assay is T14, DFNB31_3, Q9P202.
T14 sequence (Q9P202 811-907, limits assumed, looked up): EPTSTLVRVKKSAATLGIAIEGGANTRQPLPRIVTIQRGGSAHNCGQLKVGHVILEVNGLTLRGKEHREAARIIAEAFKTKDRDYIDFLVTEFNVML

Chain of Inadl_2, Q8NI35 (Q8NI35 238-335): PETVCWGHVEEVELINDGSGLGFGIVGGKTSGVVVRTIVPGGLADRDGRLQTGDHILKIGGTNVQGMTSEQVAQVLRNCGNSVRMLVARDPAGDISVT
Chain of Inadl_3, Q8NI35 (Q8NI35 359-469): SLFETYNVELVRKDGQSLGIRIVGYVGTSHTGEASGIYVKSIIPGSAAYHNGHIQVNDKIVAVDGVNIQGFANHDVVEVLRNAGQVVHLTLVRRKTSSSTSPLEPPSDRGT
Chain of MAGI2_4, Q86UL8 (Q86UL8 772-865): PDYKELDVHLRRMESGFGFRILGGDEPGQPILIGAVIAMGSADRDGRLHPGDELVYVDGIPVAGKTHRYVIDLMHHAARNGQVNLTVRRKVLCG
Chain of AHNAK1, Q09666 (Q09666 4-100): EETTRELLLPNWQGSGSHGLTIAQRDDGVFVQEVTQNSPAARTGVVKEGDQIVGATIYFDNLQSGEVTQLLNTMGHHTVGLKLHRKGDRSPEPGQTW
Chain of DLG1_2, Q12959 (Q12959 314-412): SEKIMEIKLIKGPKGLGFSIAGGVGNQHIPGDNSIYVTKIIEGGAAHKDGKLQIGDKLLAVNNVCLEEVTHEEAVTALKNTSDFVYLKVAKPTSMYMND
Chain of MAGI1_1, Q96QZ7 (Q96QZ7 1-106): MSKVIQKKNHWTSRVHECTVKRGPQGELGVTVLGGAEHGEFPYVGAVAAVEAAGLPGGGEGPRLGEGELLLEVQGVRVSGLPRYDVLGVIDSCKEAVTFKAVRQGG
Chain of Inadl_8, Q8NI35 (Q8NI35 1425-1530): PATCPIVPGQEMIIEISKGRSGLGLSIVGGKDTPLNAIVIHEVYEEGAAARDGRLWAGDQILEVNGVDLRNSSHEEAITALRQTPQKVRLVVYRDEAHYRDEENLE
Chain of GRID2IP_2, A4D2P6 (A4D2P6 272-370): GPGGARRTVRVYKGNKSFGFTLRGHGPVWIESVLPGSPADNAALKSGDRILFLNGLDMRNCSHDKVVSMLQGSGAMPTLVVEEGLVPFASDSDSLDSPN

PKTPPTDTSV [KIR3DL3, Q8N743]: the pKd with APBA1_2, Q02410 was 3.74; in the assay with DLG3_3, Q92796, “below the threshold”; with DLG1_2, Q12959 it was 3.75; with SNX27, Q96L92, 4.28; with Inadl_3, Q8NI35, “below the threshold”; with Inadl_2, Q8NI35, “below the threshold”. Also, the pKd entry with APBA2_1, Q99767 is “below the threshold”; with HTRA3, P83110, “below the threshold”; with AHNAK1, Q09666, “below the threshold”; with GRID2IP_2, A4D2P6, “below the threshold”; with PDZD2_2, O15018, 4; with LIN7B, Q9HAP6, “below the threshold”. Besides, the pKd result was “below the threshold” with MAGI1_1, Q96QZ7; “below the threshold” in the assay with TJP3_3, O95049; “below the threshold” with SIPA1L2, Q9P2F8; “below the threshold” with Inadl_8, Q8NI35; “below the threshold” with RADIL, Q96JH8; “below the threshold” with GRIP1_2, Q9Y3R0. The pKd result in the assay with DFNB31_2, Q9P202 was “below the threshold”; with PDZD7_3, Q9H5P4, 3.61; with MAGI2_4, Q86UL8, “below the threshold”; with SYNJ2BP, P57105, 4.44; with DFNB31_3, Q9P202, “below the threshold”.

On to GQDSREETQL [KCNT2, Q6UVM3], for which the pKd is 3.79 in the assay with APBA1_2, Q02410; “below the threshold” in the assay with DLG3_3, Q92796; 4.2 in the assay with DLG1_2, Q12959; 5.27 with SNX27, Q96L92; “below the threshold” with Inadl_3, Q8NI35; “below the threshold” in the assay with Inadl_2, Q8NI35. Further, the pKd result with APBA2_1, Q99767 is “below the threshold”; with HTRA3, P83110 it was “below the threshold”; with AHNAK1, Q09666, “below the threshold”; with GRID2IP_2, A4D2P6, 4.52; with PDZD2_2, O15018, “below the threshold”; with LIN7B, Q9HAP6, 3.66. For the same molecule, the pKd result with MAGI1_1, Q96QZ7 is given as “below the threshold”; with TJP3_3, O95049 it was “below the threshold”; with SIPA1L2, Q9P2F8, “below the threshold”; in the assay with Inadl_8, Q8NI35 it was “below the threshold”; with RADIL, Q96JH8, “below the threshold”; with GRIP1_2, Q9Y3R0, “below the threshold”. The negative-log Kd (pKd) entry with DFNB31_2, Q9P202 is “below the threshold”; with PDZD7_3, Q9H5P4 it was 4.47; in the assay with MAGI2_4, Q86UL8, “below the threshold”; with SYNJ2BP, P57105 it was 4.62; with DFNB31_3, Q9P202, “below the threshold”.

Regarding TVASEKESVM [SLC1A5, Q15758], the pKd entry in the assay with APBA1_2, Q02410 was “below the threshold”; with DLG3_3, Q92796, 3.66; with DLG1_2, Q12959, “below the threshold”; with SNX27, Q96L92 it was 5.29; in the assay with Inadl_3, Q8NI35, “below the threshold”; in the assay with Inadl_2, Q8NI35 it was “below the threshold”. The negative-log Kd (pKd) entry in the assay with APBA2_1, Q99767 was “below the threshold”; in the assay with HTRA3, P83110, “below the threshold”; in the assay with AHNAK1, Q09666, “below the threshold”; with GRID2IP_2, A4D2P6 it was 3.7; with PDZD2_2, O15018, “below the threshold”; in the assay with LIN7B, Q9HAP6, “below the threshold”. Besides, the pKd entry with MAGI1_1, Q96QZ7 is on record as “below the threshold”; with TJP3_3, O95049, “below the threshold”; with SIPA1L2, Q9P2F8, “below the threshold”; in the assay with Inadl_8, Q8NI35, “below the threshold”; with RADIL, Q96JH8, “below the threshold”; in the assay with GRIP1_2, Q9Y3R0, “below the threshold”. For the same molecule, the pKd result with DFNB31_2, Q9P202 was “below the threshold”; with PDZD7_3, Q9H5P4, 3.71; with MAGI2_4, Q86UL8 it was “below the threshold”; in the assay with SYNJ2BP, P57105, 3.51; in the assay with DFNB31_3, Q9P202, “below the threshold”.

As for VLRLQSETSV [VANGL1, Q8TAA9], the pKd in the assay with APBA1_2, Q02410 was 3.6; with DLG3_3, Q92796, 4.7; with DLG1_2, Q12959, 4.86; with SNX27, Q96L92 it was 5.7; with Inadl_3, Q8NI35, “below the threshold”; with Inadl_2, Q8NI35, “below the threshold”. Moreover, the pKd entry in the assay with APBA2_1, Q99767 is “below the threshold”; with HTRA3, P83110 it was “below the threshold”; in the assay with AHNAK1, Q09666 it was “below the threshold”; with GRID2IP_2, A4D2P6, “below the threshold”; in the assay with PDZD2_2, O15018, 4.12; in the assay with LIN7B, Q9HAP6, 3.67. Further, the pKd entry is reported as “below the threshold” with MAGI1_1, Q96QZ7; “below the threshold” with TJP3_3, O95049; “below the threshold” in the assay with SIPA1L2, Q9P2F8; “below the threshold” in the assay with Inadl_8, Q8NI35; “below the threshold” in the assay with RADIL, Q96JH8; “below the threshold” with GRIP1_2, Q9Y3R0. The pKd result with DFNB31_2, Q9P202 is “below the threshold”; with PDZD7_3, Q9H5P4 it was “below the threshold”; in the assay with MAGI2_4, Q86UL8, 4.42; with SYNJ2BP, P57105, 5.41; with DFNB31_3, Q9P202 it was “below the threshold”.
